Results reported in the Human Domainome abundance scans (Beltran et al. 2025).
± gives the uncertainty stated by the source.

B1: SWI/SNF-related matrix-associated actin-dependent regulator of chromatin subfamily B member 1, residues 181 to 248; numbered along this chain, Q12824 (parent)
chain: SQPEVLVPIRLDMEIDGQKLRDAFTWNMNEKLMTPEMFSEILCDDLDLNPLTFVPAIASAIRQQIESY

Variants of: B1
Experiment: abundance fitness (aPCA) (normalised: wild type 0, dead -1); higher = more abundant; growth selection in yeast, the domain comes from the species named
Conditions: Homo sapiens

Variant	abundance fitness
SQPEVLVPIRLDMEIDGQKLRDAFTWNMNEKLMTPEMFSEILCDDLHLNPLTFVPAIASAIRQQIESY [D47H]	-0.018 ± 0.053
SQPEVLVPIRLDMEIDGQKLRDAFTWNMNEKLMTPEMFSEILCDDLLLNPLTFVPAIASAIRQQIESY [D47L]	-0.425 ± 0.056
SQPEVLVPIRLDMEIDGQKLRDAFTWNMNEKLMTPEMFSDILCDDLDLNPLTFVPAIASAIRQQIESY [E40D]	-0.566 ± 0.089
SQPEVLVPIRLDMEINGQKLRDAFTWNMNEKLMTPEMFSEILCDDLDLNPLTFVPAIASAIRQQIESY [D16N]	-0.312 ± 0.11
SQPEVLVPIRLDMEIWGQKLRDAFTWNMNEKLMTPEMFSEILCDDLDLNPLTFVPAIASAIRQQIESY [D16W]	-0.822 ± 0.15
SQPEVLVPIRLDMEIDGQKLRDAFTWNMNEKLMTPEMFSEILCNDLDLNPLTFVPAIASAIRQQIESY [D44N]	-0.403 ± 0.47
SQPIVLVPIRLDMEIDGQKLRDAFTWNMNEKLMTPEMFSEILCDDLDLNPLTFVPAIASAIRQQIESY [E4I]	-0.495 ± 0.17
SQSEVLVPIRLDMEIDGQKLRDAFTWNMNEKLMTPEMFSEILCDDLDLNPLTFVPAIASAIRQQIESY [P3S]	0.129 ± 0.052
SQPEVLVPIRLDMEIDGQKLRDAFTWNMNEKLMTPEMFSEILCDDHDLNPLTFVPAIASAIRQQIESY [L46H]	0.318 ± 0.14
SQPEVLVPIRLDMEIDGQKLRDAFTWNMNEKLMTPEMFSEILCDDLDLNPLSFVPAIASAIRQQIESY [T52S]	-0.14 ± 0.17
SQPEVLVPIRLDMEIDGQKLRDAFTWNMNEKLMTPEMFSEMLCDDLDLNPLTFVPAIASAIRQQIESY [I41M]	0.131 ± 0.048
SQPEVLVPIRLDMEIDGQKLRDAFTWNMNEKLMTPEMFSELLCDDLDLNPLTFVPAIASAIRQQIESY [I41L]	-0.011 ± 0.036
SQPEVLVPIRLDMEIDGQKLRDAFTWNMNEKLMTPEMFSEALCDDLDLNPLTFVPAIASAIRQQIESY [I41A]	0.207 ± 0.04
SQPEVLVPIRLDMEIDGQKLRDAFTWNMNEKLMTPEMFSEILCDDLDLNPLTFVPAIASAIRQQIEHY [S67H]	-0.089 ± 0.057
SQPEVLVPIRLDMEIDGQKLRDAFTWNMNEKLMTPEMFSEILCDDLDLNPLTFVPAIASAIRQQQESY [I65Q]	-0.852 ± 0.22
SQPEVLVPIRLDMEIDGQKLRDAFTWSMNEKLMTPEMFSEILCDDLDLNPLTFVPAIASAIRQQIESY [N27S]	-0.582 ± 0.31
SQPEVLVPIRLDMEIDGQKLRDAFTWGMNEKLMTPEMFSEILCDDLDLNPLTFVPAIASAIRQQIESY [N27G]	-0.622 ± 0.22
SQPEVLVPIRLDVEIDGQKLRDAFTWNMNEKLMTPEMFSEILCDDLDLNPLTFVPAIASAIRQQIESY [M13V]	-0.214 ± 0.17
SQPEVLVPIRLDMEIDGQKLRDAFDWNMNEKLMTPEMFSEILCDDLDLNPLTFVPAIASAIRQQIESY [T25D]	0.021 ± 0.044
SQPEVLVPIRLDMEIDGQKLRDAFTWNMNEKLMTPEMFSEILCDDLDLNPLTFVPFIASAIRQQIESY [A56F]	-0.623 ± 0.16

Variant	abundance fitness
SQPEVLVPIWLDMEIDGQKLRDAFTWNMNEKLMTPEMFSEILCDDLDLNPLTFVPAIASAIRQQIESY [R10W]	-0.196 ± 0.1
SQPEVLVPIRLDMEIDGQKLRDAFTWNMNEKLATPEMFSEILCDDLDLNPLTFVPAIASAIRQQIESY [M33A]	-0.563 ± 0.091
SQPEVLVPIRLDMEIDEQKLRDAFTWNMNEKLMTPEMFSEILCDDLDLNPLTFVPAIASAIRQQIESY [G17E]	-0.931 ± 0.18
SQPEVLVPIRLDMEIDTQKLRDAFTWNMNEKLMTPEMFSEILCDDLDLNPLTFVPAIASAIRQQIESY [G17T]	-0.896 ± 0.24
SQPEVLVPIRLDMEIDPQKLRDAFTWNMNEKLMTPEMFSEILCDDLDLNPLTFVPAIASAIRQQIESY [G17P]	-0.927 ± 0.29
SQPEVLVPIRLGMEIDGQKLRDAFTWNMNEKLMTPEMFSEILCDDLDLNPLTFVPAIASAIRQQIESY [D12G]	-0.264 ± 0.5
SQPEVLVPIRLFMEIDGQKLRDAFTWNMNEKLMTPEMFSEILCDDLDLNPLTFVPAIASAIRQQIESY [D12F]	-0.73 ± 0.24
SQPEVLVPIRLDMEIDGQKLRDAFTWNMNEKLMTPEMFSEILCDDLDLNPLTFLPAIASAIRQQIESY [V54L]	-0.684 ± 0.21
SQPETLVPIRLDMEIDGQKLRDAFTWNMNEKLMTPEMFSEILCDDLDLNPLTFVPAIASAIRQQIESY [V5T]	0.213 ± 0.13
SQPEVLVPIRLDMEIDGQKLRDAFTWNMNEKLMTPEMFSEILCDDLDPNPLTFVPAIASAIRQQIESY [L48P]	-0.873 ± 0.18
SQPEVLVPIRLDMEIDGQKLRDAFTWNMNEKLMTPEMFSEILCDDLDNNPLTFVPAIASAIRQQIESY [L48N]	-0.664 ± 0.17
SQPEVLVPIRLDMEIDGQKLRDAFTWNMNEKLMTPEMFSEILCDDLDANPLTFVPAIASAIRQQIESY [L48A]	-0.857 ± 0.1
SQPEVLQPIRLDMEIDGQKLRDAFTWNMNEKLMTPEMFSEILCDDLDLNPLTFVPAIASAIRQQIESY [V7Q]	-0.937 ± 0.19
SQPEVLLPIRLDMEIDGQKLRDAFTWNMNEKLMTPEMFSEILCDDLDLNPLTFVPAIASAIRQQIESY [V7L]	-0.322 ± 0.055
SQPEVLVPIRLDMEIDGQKLRDAFTWNMNEKLMTPEMFSEILCDDLDLNKLTFVPAIASAIRQQIESY [P50K]	0.138 ± 0.053
SQPEVLVPIRLDMEIDGQKLRDAFTWNMNEKLMTPEMFSEILCDDLDLNFLTFVPAIASAIRQQIESY [P50F]	-0.285 ± 0.14
SQPEVLVPIRLDMEIDGQKLRDAFTWNMNEKNMTPEMFSEILCDDLDLNPLTFVPAIASAIRQQIESY [L32N]	0.207 ± 0.1
SHPEVLVPIRLDMEIDGQKLRDAFTWNMNEKLMTPEMFSEILCDDLDLNPLTFVPAIASAIRQQIESY [Q2H]	-0.266 ± 0.16
SQPEVLVPIRLDMSIDGQKLRDAFTWNMNEKLMTPEMFSEILCDDLDLNPLTFVPAIASAIRQQIESY [E14S]	-0.071 ± 0.12
SQPEVLVPIRLDMEIDGQKLRDAFTWNMNEKLMTPEMFSEILTDDLDLNPLTFVPAIASAIRQQIESY [C43T]	-0.971 ± 0.18
